Test results taken from PMC8997467.

Legend:
Conditions in all cases: glycan lost; control: wild type
[1] = cell surface biotinylation, streptavidin pulldown, HeLa
[2] = anti-FLAG surface immunofluorescence, non-permeabilised HeLa
[3] = co-immunostaining with ER marker HA-PDIA4

Substance | localisation_or_trafficking, percent_of_wt [1] | localisation_or_trafficking, percent_of_wt [2] | localisation_or_trafficking [3]
Neuronal growth regulator 1 (NEGR1): 1MT (N307Q) | no change | – | –
Neuronal growth regulator 1 (NEGR1): N73Q | – | no change | –
Neuronal growth regulator 1 (NEGR1): N73Q/N155Q | abolishes | abolishes | changes
Neuronal growth regulator 1 (NEGR1): N155Q | – | no change | –
Neuronal growth regulator 1 (NEGR1): N275Q | – | no change | –
Neuronal growth regulator 1 (NEGR1): N286Q | – | no change | –
Neuronal growth regulator 1 (NEGR1): N294Q | – | no change | –
Neuronal growth regulator 1 (NEGR1): N307Q | – | no change | –
